Laboratory results taken from patent US20110195022A1 (IMMUNOGEN, published 2011).
“And” between values parts separate entries of the source, which are not always exact repeats. Identical values can stand only once. Like-named read-outs stand apart in the source and are kept apart here.

Columns and labels:
CD20-A170S P172S variant [1] = biological target: T1, CD20-A170S P172S variant (human, UniProt P11836 1-297); assay: flow cytometry, 300-19 cells transfected with CD20-A170S P172S, MFI against antibody concentration
T1 construct: whole, on cells; also called CD20-AP; CD20AP
T1 sequence (looked up): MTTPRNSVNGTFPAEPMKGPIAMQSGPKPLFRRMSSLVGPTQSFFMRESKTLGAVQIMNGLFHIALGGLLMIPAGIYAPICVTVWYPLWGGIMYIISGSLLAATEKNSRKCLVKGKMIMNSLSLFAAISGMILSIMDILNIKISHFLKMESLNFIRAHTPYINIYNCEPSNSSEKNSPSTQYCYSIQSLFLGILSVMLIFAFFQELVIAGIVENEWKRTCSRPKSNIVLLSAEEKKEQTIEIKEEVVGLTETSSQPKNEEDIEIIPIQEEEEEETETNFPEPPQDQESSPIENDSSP

CD20-A170S P172S variant [2] = biological target: T1, CD20-A170S P172S variant; assay: as above; remark: listed apart in the source
human CD20 [3] = biological target: T2, human CD20 (human, UniProt P11836 1-297); assay: flow cytometry titration on BJAB cells, apparent Kd from the dose-response curve
T2 construct: whole, on cells; Tetra-spanin type membrane antigen, always presented on cells; also called CD20 wildtype; wild type CD20
T2 sequence (looked up): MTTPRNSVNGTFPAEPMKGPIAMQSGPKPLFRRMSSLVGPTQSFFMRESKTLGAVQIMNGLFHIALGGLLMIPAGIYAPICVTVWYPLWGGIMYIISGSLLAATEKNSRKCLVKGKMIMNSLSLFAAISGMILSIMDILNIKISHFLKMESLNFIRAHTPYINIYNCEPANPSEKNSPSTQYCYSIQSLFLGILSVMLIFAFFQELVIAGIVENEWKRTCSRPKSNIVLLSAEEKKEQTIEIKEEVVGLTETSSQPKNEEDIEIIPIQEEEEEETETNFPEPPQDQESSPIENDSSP
Experimental: (§1) Data analysis was performed using CellQuest Pro (BD Biosciences, San Diego, US) and for each sample the mean fluorescence intensity for FL1 (MFI) was exported and plotted against the antibody concentration in a semi-log plot.
The value for the apparent dissociation constant (Kd) of each antibody was calculated using GraphPad Prism v4 (GraphPad software, San Diego, Calif.).

human CD20 [4] = biological target: T2, human CD20; assay: cell-based or functional assay
human CD20 [5] = biological target: T2, human CD20; assay: flow cytometry titration on BJAB cells, apparent Kd from the binding curve
Experimental: as §1

human CD20 [6] = biological target: T2, human CD20; assay: cell-based or functional assay; remark: listed apart in the source
human CD20 [7] = biological target: T2, human CD20; assay: flow cytometry, 300-19 cells transfected with wild type human CD20, MFI against antibody concentration
human CD20 [8] = biological target: T2, human CD20; assay: flow cytometry, BJAB cells, MFI against antibody concentration
Experimental: as §1

B1: 2F2 (antibody, V domains shown)
VH: EVQLVESGGGLVQPGRSLRLSCAASGFTFNDYAMHWVRQAPGKGLEWVSTISWNSGSIGYADSVKGRFTISRDNAKKSLYLQMNSLRAEDTALYYCAKDIQYGNYYYGMDVWGQGTTVTVSS
VL: EIVLTQSPATLSLSPGERATLSCRASQSVSSYLAWYQQKPGQAPRLLIYDASNRATGIPARFSGSGSGTDFTLTISSLEPEDFAVYYCQQRSNWPITFGQGTRLEIK
CD20-A170S P172S variant [1]
  EC50 (read off the curve): ~4 nM
CD20-A170S P172S variant [2]
  EC50 (read off the curve): ~2 nM

B2: chCD20-4 (antibody, V domains shown)
VH: EVKVEESGGGLVKTGGSMKLSCVASGFSFNNYWMNWVRQSPEKGLEWVAEIRLKSNNYATHYVESVKGRFTISRDDSKSSVYLQMNNLRAEDTGIYYCTGWDDYAMDHWGQGISVTVSS
VL: DIVMTQSQKFMSTSVGDRVSVNCKASQNVGTNVAWYQQKPRQSPKGLIYSASFRYSGVPDRFTGSGSGTDFTLTIFNVQSDDLAEYFCQQYNNYPLTFGGGTKLEIKR
notes: Chimeric antibody: murine CD20-4 variable regions cloned in frame with human constant regions (plasmids pchCD20-4HCN and pchCD20-4LCZ), expressed in HEK-293T; the murine VL/VH entries 5 and 6 are used; a huIgG1 isotype control was used beside it; also called chimeric CD20-4
Human CD20 [3]
  Kd: 0.47 nM
Human CD20 [4]
  EC50 of CDC, WSU-DLCL-2 cells, 5% human complement: 27 ng/mL

B3: huCD20-4-SMCC-DM1 (antibody, human IgG1, kappa, V domains shown)
VH: EVQVEESGGGLVQPGGSMRLSCVASGFSFNNYWMNWVRQSPGKGLEWVAEIRLKSNNYATHYVDSVKGRFTISRDDSKSSVYLQMNNLRAEDTGIYYCTGWDDYAMDHWGQGISVTVSS
VL: DIQMTQSPSTMSTSVGDRVSVNCKASQNVGTNVAWYQQKPGKSPKGLIYSASFRYSGVPSRFTGSGSGTDFTLTIFNVQPDDLAEYFCQQYNNYPLTFGGGTKLEIKR
modifications: DM1 linked through SMCC (thioether), 3.5-4 DM1 molecules per antibody; sites not stated
notes: also called huCD20-4-MCC-DM1
Human CD20 [5]
  Kd: 0.9 nM
Human CD20 [6]
  EC50 of in vitro cytotoxicity (WST-8), DOHH-2 cells: 0.11 nM
  EC50 of in vitro cytotoxicity (WST-8), Daudi cells: 0.29 nM
  EC50 of in vitro cytotoxicity (WST-8), Granta-519 cells: 0.03 nM
  EC50 of in vitro cytotoxicity (WST-8), Ramos cells: 0.54 nM
  EC50 of in vitro cytotoxicity (WST-8), SC-1 cells: 0.6 nM
Human CD20 [4]
  EC50 of ADCC, Granta-519 cells, human NK cells, LDH release: 0.28 ng/mL
  EC50 of ADCC, SU-DHL-4 cells, human NK cells, LDH release: 0.27 ng/mL
  EC50 of CDC, Daudi cells, 5% human complement: ~80 ng/mL
  EC50 of CDC, WSU-DLCL-2 cells, 5% human complement: ~40 ng/mL
  EC50 of in vitro cytotoxicity (WST-8), Daudi cells: 0.21 nM
  EC50 of in vitro cytotoxicity (WST-8), Ramos cells: 0.22 nM and 0.35 nM

B4: huCD20-4 (antibody, human IgG1, kappa, V domains shown)
VH: EVQVEESGGGLVQPGGSMRLSCVASGFSFNNYWMNWVRQSPGKGLEWVAEIRLKSNNYATHYVDSVKGRFTISRDDSKSSVYLQMNNLRAEDTGIYYCTGWDDYAMDHWGQGISVTVSS
VL: DIQMTQSPSTMSTSVGDRVSVNCKASQNVGTNVAWYQQKPGKSPKGLIYSASFRYSGVPSRFTGSGSGTDFTLTIFNVQPDDLAEYFCQQYNNYPLTFGGGTKLEIKR
notes: Resurfaced antibody expressed in HEK-293T cells; also called humanized CD20-4; resurfaced CD20-4
Human CD20 [5]
  Kd: 1 nM
Human CD20 [3]
  Kd: 0.46 nM
Human CD20 [4]
  EC50 of ADCC, DOHH-2 cells, human NK cells, LDH release: 0.57 ng/mL
  EC50 of ADCC, Granta-519 cells, human NK cells, LDH release: 0.28 ng/mL and 0.29 ng/mL
  EC50 of ADCC, JVM-13 cells, human NK cells, LDH release: 0.097 ng/mL
  EC50 of ADCC, Ramos cells, human NK cells, LDH release: 0.4 ng/mL
  EC50 of ADCC, SU-DHL-4 cells, human NK cells, LDH release: 0.2 ng/mL
  EC50 of ADCC, WSU-DLCL-2 cells, human NK cells, LDH release: 0.4 ng/mL
  EC50 of CDC, Daudi cells, 5% human complement: 50 ng/mL and ~50 ng/mL
  EC50 of CDC, Raji cells, 5% human complement: 32 ng/mL
  EC50 of CDC, Ramos cells, 5% human complement: 10 ng/mL
  EC50 of CDC, SU-DHL-4 cells, 5% human complement: 30 ng/mL
  EC50 of CDC, WSU-DLCL-2 cells, 5% human complement: ~40 ng/mL
Human CD20 [7]
  EC50 (read off the curve): ~1 nM
Human CD20 [8]
  EC50 (read off the curve): ~0.6 nM
CD20-A170S P172S variant [2]
  binding result: no binding (tested: 1e-7 M)

B5: huCD20-4-SPP-DM1 (antibody, human IgG1, kappa, V domains shown)
VH: EVQVEESGGGLVQPGGSMRLSCVASGFSFNNYWMNWVRQSPGKGLEWVAEIRLKSNNYATHYVDSVKGRFTISRDDSKSSVYLQMNNLRAEDTGIYYCTGWDDYAMDHWGQGISVTVSS
VL: DIQMTQSPSTMSTSVGDRVSVNCKASQNVGTNVAWYQQKPGKSPKGLIYSASFRYSGVPSRFTGSGSGTDFTLTIFNVQPDDLAEYFCQQYNNYPLTFGGGTKLEIKR
modifications: DM1 linked through SPP (disulfide), 3.5-4 DM1 molecules per antibody; sites not stated
Human CD20 [5]
  Kd: 1.5 nM
Human CD20 [4]
  EC50 of in vitro cytotoxicity (WST-8), Daudi cells: 0.4 nM
  EC50 of in vitro cytotoxicity (WST-8), Ramos cells: 0.35 nM

B6: muCD20-4 (antibody, mouse IgG2a, kappa, V domains shown)
VH: EVKVEESGGGLVKTGGSMKLSCVASGFSFNNYWMNWVRQSPEKGLEWVAEIRLKSNNYATHYVESVKGRFTISRDDSKSSVYLQMNNLRAEDTGIYYCTGWDDYAMDHWGQGISVTVSS
VL: DIVMTQSQKFMSTSVGDRVSVNCKASQNVGTNVAWYQQKPRQSPKGLIYSASFRYSGVPDRFTGSGSGTDFTLTIFNVQSDDLAEYFCQQYNNYPLTFGGGTKLEIKR
notes: Murine monoclonal antibody purified from hybridoma supernatant (ATCC PTA-10485 or PTA-10561); also called murine CD20-4
Human CD20 [3]
  Kd: 0.97 nM

B7: huCD20-4-SPDB-DM4 (antibody, human IgG1, kappa, V domains shown)
VH: EVQVEESGGGLVQPGGSMRLSCVASGFSFNNYWMNWVRQSPGKGLEWVAEIRLKSNNYATHYVDSVKGRFTISRDDSKSSVYLQMNNLRAEDTGIYYCTGWDDYAMDHWGQGISVTVSS
VL: DIQMTQSPSTMSTSVGDRVSVNCKASQNVGTNVAWYQQKPGKSPKGLIYSASFRYSGVPSRFTGSGSGTDFTLTIFNVQPDDLAEYFCQQYNNYPLTFGGGTKLEIKR
modifications: DM4 linked through SPDB (disulfide), 3.5-4 DM4 molecules per antibody; sites not stated
Human CD20 [4]
  EC50 of CDC, WSU-DLCL-2 cells, 5% human complement: ~40 ng/mL
  EC50 of in vitro cytotoxicity (WST-8), Daudi cells: 0.19 nM
  EC50 of in vitro cytotoxicity (WST-8), Ramos cells: 0.39 nM

B8: chCD20-20 (antibody, V domains shown)
VH: QVQLQQSGAELARPGASVKLSCKASGYTFTSYWMHWVKQRPGQGLEWIGAIYPGDGDTRYTQKFKGKATLTADKSSYTAYMQLSSLASEDSAVYYCARSPDFYGSGYDFDYWGQGTTLTVSS
VL: DIKMTQSPSSMYTSLGERVTITCKASQDINSFLSWFQQKPGKSPKTLIYRAYRLVDGVPSRFSGSGSGQDYSLTISSLEFEDMGIYYCLQSGAFPLTFGAGTKLELKR
notes: Chimeric antibody: murine CD20-20 variable regions with human constant regions (equivalent plasmids to chCD20-4), expressed in HEK-293T; the murine VL/VH entries 7 and 8 are used; also called chimeric CD20-20
Human CD20 [3]
  Kd: 0.42 nM
Human CD20 [4]
  EC50 of CDC, WSU-DLCL-2 cells, 5% human complement: 84 ng/mL
Human CD20 [7]
  EC50 (read off the curve): ~0.7 nM

B9: muCD20-20 (antibody, mouse IgG1, kappa, V domains shown)
VH: QVQLQQSGAELARPGASVKLSCKASGYTFTSYWMHWVKQRPGQGLEWIGAIYPGDGDTRYTQKFKGKATLTADKSSYTAYMQLSSLASEDSAVYYCARSPDFYGSGYDFDYWGQGTTLTVSS
VL: DIKMTQSPSSMYTSLGERVTITCKASQDINSFLSWFQQKPGKSPKTLIYRAYRLVDGVPSRFSGSGSGQDYSLTISSLEFEDMGIYYCLQSGAFPLTFGAGTKLELKR
notes: Murine monoclonal antibody purified from hybridoma supernatant; also called murine CD20-20
Human CD20 [3]
  Kd: 0.59 nM

B10: rituximab (antibody, V domains shown)
VH: QVQLQQPGAELVKPGASVKMSCKASGYTFTSYNMHWVKQTPGRGLEWIGAIYPGNGDTSYNQKFKGKATLTADKSSSTAYMQLSSLTSEDSAVYYCARSTYYGGDWYFNVWGAGTTVTVSA
VL: QIVLSQSPAILSASPGEKVTMTCRASSSVSYIHWFQQKPGSSPKPWIYATSNLASGVPVRFSGSGSGTSYSLTISRVEAEDAATYYCQQWTSNPPTFGGGTKLEIK
Human CD20 [4]
  EC50 of ADCC, DOHH-2 cells, human NK cells, LDH release: 1.08 ng/mL
  EC50 of ADCC, Granta-519 cells, human NK cells, LDH release: 1.23 ng/mL
  EC50 of ADCC, JVM-13 cells, human NK cells, LDH release: 0.29 ng/mL
  EC50 of ADCC, Ramos cells, human NK cells, LDH release: 3.5 ng/mL
  EC50 of ADCC, SU-DHL-4 cells, human NK cells, LDH release: 0.53 ng/mL
  EC50 of CDC, Daudi cells, 5% human complement: 300 ng/mL
  EC50 of CDC, Raji cells, 5% human complement: 110 ng/mL
  EC50 of CDC, Ramos cells, 5% human complement: 60 ng/mL
  EC50 of CDC, SU-DHL-4 cells, 5% human complement: 310 ng/mL
  EC50 of CDC, WSU-DLCL-2 cells, 5% human complement: 350 ng/mL and 190 ng/mL
